Paper PMC3807968 (2014)
[ ]: non-standard residue; d: D form. The star is where a group is joined. Butanoyl(4-Ph) = O=C(CCCc1ccccc1)*; Butanoyl(4-ethynyl) = C#CCCCC(=O)*

Biological target: T1, ligand 5 on uncrosslinked micelles, 5% loading (5-UXL) (not fully specified; also: uncrosslinked micelle)
T1 chain: {Butanoyl(4-Ph)}-H[dF]RWGK(Butanoyl(4-ethynyl))-NH2
Experiment: Eu-NDP-α-MSH time-resolved fluorescence whole-cell competition binding

B1: Melanocortin 1 receptor (protein)
chain: MAVQGSQRRLLGSLNSTPTAIPQLGLAANQTGARCLEVSISDGLFLSLGLVSLVENALVVATIAKNRNLHSPMYCFICCLALSDLLVSGSNVLETAVILLLEAGALVARAAVLQQLDNVIDVITCSSMLSSLCFLGAIAVDRYISIFYALRYHSIVTLPRARRAVAAIWVASVVFSTLFIAYYDHVAVLLCLVVFFLAMLVLMAVLYVHMLARACQHAQGIARLHKRQRPVHQGFGLKGAVTLTILLGIFFLCWGPFFLHLTLIVLCPEHPTCGCIFKNFNLFLALIICNAIIDPLIYAFHSQELRRTLKEVLTCSW
  Ki: 12 nM
